Measurements: patent publication US20240343803A1 (SHANDONG SIMCERE BIOPHARMACEUTICAL, published 2024)
Several values for one entry are separate records, joined by “and”; a condition that tells them apart may be missing. Equal entries are not always repeated.

T1: human PVRIG on FlpinCHO-PVRIG cells (human, UniProt Q6DKI7 41-326)
T1 construct: whole, on cells; also called FlpinCHO-hPVRIG; FlpinCHO-human PVRIG
T1 sequence (looked up): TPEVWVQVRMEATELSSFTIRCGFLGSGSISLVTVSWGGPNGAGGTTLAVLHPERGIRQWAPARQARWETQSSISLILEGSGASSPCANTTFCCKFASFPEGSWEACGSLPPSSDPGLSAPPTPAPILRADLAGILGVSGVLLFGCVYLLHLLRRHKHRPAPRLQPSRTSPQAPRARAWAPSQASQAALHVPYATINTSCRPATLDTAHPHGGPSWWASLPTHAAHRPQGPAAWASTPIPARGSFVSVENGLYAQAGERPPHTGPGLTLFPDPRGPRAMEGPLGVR

T2: cynomolgus monkey PVRIG on FlpinCHO-cyno PVRIG cells (cynomolgus monkey, UniProt A0A2K5WVV8 41-322)
T2 construct: whole, on cells; also called FlpinCHO-cynomolgus monkey PVRIG
T2 sequence: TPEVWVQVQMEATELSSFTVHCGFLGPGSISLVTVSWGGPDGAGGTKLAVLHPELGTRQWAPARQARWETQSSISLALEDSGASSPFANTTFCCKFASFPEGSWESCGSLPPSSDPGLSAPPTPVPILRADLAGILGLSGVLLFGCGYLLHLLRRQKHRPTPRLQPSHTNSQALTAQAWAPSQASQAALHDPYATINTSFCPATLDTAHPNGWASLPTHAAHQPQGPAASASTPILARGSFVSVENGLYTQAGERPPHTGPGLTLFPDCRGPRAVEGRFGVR

T3: human PVRIG-mFc protein (Acro, PVG-H5253) (human, UniProt Q6DKI7 41-171, limits assumed)
T3 construct: bought reagent; also called PVRIG-ECD-mFc
T3 sequence (looked up): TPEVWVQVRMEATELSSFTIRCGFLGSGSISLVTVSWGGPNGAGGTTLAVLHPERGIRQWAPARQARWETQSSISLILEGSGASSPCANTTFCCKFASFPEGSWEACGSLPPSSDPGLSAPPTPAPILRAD

T4: Full-length human TIGIT on CHO-K1 cells (CHO-K1 human TIGIT) (human, UniProt Q495A1 22-244)
T4 construct: NCBI XP_024309156.1; the entry includes the signal peptide (limits not recoverable); The strain (high, medium, low) is named under assay; also called high expression strain 1D2; medium expression strain 2D10
T4 sequence: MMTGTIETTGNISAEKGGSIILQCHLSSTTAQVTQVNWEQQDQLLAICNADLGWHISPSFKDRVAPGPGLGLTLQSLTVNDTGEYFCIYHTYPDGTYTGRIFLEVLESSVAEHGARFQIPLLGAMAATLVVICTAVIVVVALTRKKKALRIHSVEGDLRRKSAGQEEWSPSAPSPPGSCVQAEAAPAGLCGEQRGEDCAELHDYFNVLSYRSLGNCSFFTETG

T5: Fusion protein of extracellular domain of human TIGIT and His-tag (human TIGIT ECD-his) (human)
T5 chain: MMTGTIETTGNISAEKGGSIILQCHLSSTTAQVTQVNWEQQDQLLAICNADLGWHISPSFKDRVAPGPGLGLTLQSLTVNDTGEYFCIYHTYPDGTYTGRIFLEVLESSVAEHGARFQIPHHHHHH

T6: Fusion protein of extracellular domain of human TIGIT and mouse IgG2a Fc fragment (human TIGIT ECD-mFc) (human)
T6 construct: The entry includes the signal peptide (limits not recoverable) and the mouse IgG2a Fc
T6 chain: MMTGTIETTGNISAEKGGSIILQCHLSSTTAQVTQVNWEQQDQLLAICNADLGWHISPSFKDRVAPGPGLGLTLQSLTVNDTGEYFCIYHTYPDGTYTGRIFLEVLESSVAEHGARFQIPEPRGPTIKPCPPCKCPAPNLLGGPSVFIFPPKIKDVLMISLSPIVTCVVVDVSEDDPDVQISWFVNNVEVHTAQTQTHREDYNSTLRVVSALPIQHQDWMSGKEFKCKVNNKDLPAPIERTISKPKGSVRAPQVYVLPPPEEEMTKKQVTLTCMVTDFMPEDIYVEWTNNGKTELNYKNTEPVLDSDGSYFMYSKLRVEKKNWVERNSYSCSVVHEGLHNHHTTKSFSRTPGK


Tests used:
[1] = molecular target: T1, human PVRIG on FlpinCHO-PVRIG cells; assay: FACS, FlpinCHO-hPVRIG cells
Method: (§1) CHO-K1 stable cells ([…]-61™) transfected with human or cynomolgus monkey PVRIG high expression plasmids were named FlpinCHO-hPVRIG and FlpinCHO-cynoPVRIG. […] After discarding the cell culture medium, the cells were rinsed with PBS and digested for 8-10 minutes by adding 1 mL Versene (Gibico, 15040-066). The Ham's F12 (Gibico, 21127-022) complete medium containing 10% FBS was then added to terminate the digestion and acquire cell suspension. After cell counting, an appropriate amount of cell suspension was centrifuged at 350×g to remove the supernatant, washed twice with PBS, stained with Zombie violet (Biolegend, 423114) and incubated at room temperature for 20 minutes. After incubation, the cells were added with staining buffer (2% FBS+PBS) to stop staining, centrifuged at 350×g to remove the supernatant, washed twice and resuspended with staining buffer to a density of 2×10⁶ cells/mL. The cells were plated into a 96-well plate (50 μL of cell suspension per well) for further use. The antibodies were diluted from the highest concentration of 46 nM (two-fold concentration) with staining buffer by 3.3-fold serial dilution. The diluted antibodies were added to the well containing 50 μL of cell suspension. […] After staining, the cells were washed twice with staining buffer, finally resuspended with 200 μL staining buffer and analyzed by flow cytometry (BD, Canto II).

[2] = molecular target: T2, cynomolgus monkey PVRIG on …; assay: FACS, FlpinCHO cynomolgus monkey PVRIG cells
Method: as §1

[3] = molecular target: T3, human PVRIG-mFc protein (Acro, …); assay: competition FACS; blocked: PVRIG-mFc binding to CHO-K1 CD112 cells
Method: The Ham's F12 (Gibico, 21127-022) complete medium containing 10% FBS was then added to stop the digestion and acquire cell suspension. After counting with a cell counter (Beckman Coulter, Vi-CELL), an appropriate amount of cell suspension was centrifuged at 350×g to remove the supernatant, washed twice with PBS, stained with Zombie violet (Biolegend, 423114) and incubated at room temperature for 20 minutes. After incubation, the cells were added with staining buffer (2% FBS+PBS) to stop staining, centrifuged at 350×g to remove the supernatant, washed twice and resuspended with staining buffer to a density of 2×10⁶ cells/mL. The cells were plated into a 96-well plate (50 μL of cell suspension per well) for further use. A working solution of human PVRIG-mFc protein (Acro, PVG-H5253) prepared with staining buffer, 1 μg/mL (four-fold concentration), was added into a 96-well plate (50 μL PVRIG-mFc working solution per well). […] The diluted antibodies were added to the well containing 50 μL of PVRIG-mFc. The plate was placed on a microplate shaker at 400 rpm for 1 minute to fully mix the antibodies and PVRIG-mFc proteins, and then incubated at 4° C. for 30 minutes. After the incubation, the cell suspension prepared above (100 μL) was added into the wells, gently mixed with the pipette tip and incubated at 4° C. for 30 minutes. After the incubation, the cells were washed twice with staining buffer (200 μL per well) and centrifuged at 350×g for 5 minutes to discard the supernatant. The PE goat anti-mouse IgG Fc antibody (Biolegend, 405337) was diluted 250 times with staining buffer, added into the washed wells (100 μL per well), mixed well, and stained at 4° C. for 30 minutes. After staining, the cells were washed twice with staining buffer, finally resuspended with 200 μL staining buffer and analyzed by flow cytometry (BD, Canto II). The weaker the fluorescence signal, the stronger the ability of the antibodies blocks the binding of CHO-K1 human CD112 cells to the PVRIG-mFc protein.

[4] = molecular target: T4, Full-length human TIGIT on CHO-K1 cells …; assay: cell binding, CHO-K1 human TIGIT high expression strain
In short: (§2)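 Binding was measured by flow cytometry after a 60-minute, 4° C incubation of the antibodies with 2×10⁵ CHO-K1 cells displaying full-length human or cynomolgus monkey TIGIT. Antibody titration: 12 points, threefold serial dilution from 80 nM, in 1% BSA-PBS.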

[5] = molecular target: T7, Fusion protein of extracellular domain of cynomolgus monkey TIGIT and mouse IgG2a Fc fragment (cynomolgus … (cynomolgus monkey)); assay: ELISA, cynomolgus monkey TIGIT ECD-mFc
T7 construct: The entry includes the signal peptide (limits not recoverable) and the mouse IgG2a Fc
In short: (§3)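 Antibodies diluted to 13 nM in 1% BSA, then 3-fold serial dilution for 12 concentrations, incubated with milk-blocked plates at 37° C for 1.5-2 h. Bound antibody detected with HRP-labelled secondary antibody (1:5000, 37° C, 1 h) and TMB, stopped with 1M HCl; OD450 nm read.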

[6] = molecular target: T5, Fusion protein of extracellular domain …; assay: BIAcore (second series)
[7] = molecular target: T5, Fusion protein of extracellular domain …; assay: BIAcore (second series); serves as reference of r34-r37
[8] = molecular target: T5, Fusion protein of extracellular domain …; assay: BIAcore; KD ratio to TIGIT-CHI-005
[9] = molecular target: T8, Fusion protein of extracellular domain of human TIGIT and human IgG1 Fc fragment (human TIGIT ECD-hFc) (human); assay: blocking of TIGIT ECD-hFc binding to CHO-K1 CD155 cells
T8 construct: The entry includes the signal peptide (limits not recoverable) and the human IgG1 Fc
In short: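 Cell-based ELISA on CHO-K1 CD155 cells, cultured overnight, fixed and blocked with 5% skim milk-PBS. Antibodies were premixed for 0.5 h with human TIGIT ECD-hFc (working concentration 30 ng/mL), then added and held at 37° C for 1.5-2 h. Bound TIGIT was detected with HRP secondary antibody (1:5000, 37° C, 1 h) and TMB, read as OD450 nm. IC50 came from the inhibition curves.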

[10] = molecular target: T9, Full-length cynomolgus monkey TIGIT on CHO-K1 cells (CHO-K1 cynomolgus monkey TIGIT) (cynomolgus monkey); assay: cell binding, CHO-K1 cynomolgus monkey TIGIT
T9 construct: NCBI XP_015300911.1
In short: as §2

[11] = molecular target: T5, Fusion protein of extracellular domain …; assay: BIAcore
[12] = molecular target: T6, Fusion protein of extracellular domain …; assay: ELISA, human TIGIT ECD-mFc
In short: as §3

T9 sequence (chain, as listed by the source limits assumed): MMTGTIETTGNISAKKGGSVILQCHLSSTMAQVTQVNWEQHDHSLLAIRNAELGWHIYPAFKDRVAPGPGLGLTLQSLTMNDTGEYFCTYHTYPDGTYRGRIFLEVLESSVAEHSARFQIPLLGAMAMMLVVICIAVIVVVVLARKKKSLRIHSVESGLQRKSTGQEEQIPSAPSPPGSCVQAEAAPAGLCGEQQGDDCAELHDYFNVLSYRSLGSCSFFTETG

Binder	EC50 (read off the curve) [1]	EC50 (read off the curve) [2]	IC50 (read off the curve) [3]	EC50 [4]	EC50 [5]	Kd [6]	koff [6]	kon [6]	Fold change vs chimeric antibodies (KD) [7]	Fold change vs chimeric antibodies (KD) [8]	IC50 [9]	EC50 [10]	Kd [11]	koff [11]	kon [11]	EC50 [12]
PVRIG-A105-H1 (VHH, humanized VHH; also called A105.VH1) VHH: EVQLVESGGGLVQPGGSLRLSCAASGRTFDRHTMSWFRQAPGKEREFVATASRIPGDTYYVDSVKGRFTISRDNAKNSLYLQMNSLRAEDTAVYYCAATSAYCSEVDCYEKGSWYDNWGQGTMVTVSS	~0.5 nM	~0.4 nM	~1 nM													
TIGIT-005-H2L1 (antibody, V domains shown, Humanized anti-TIGIT antibody) VH: EVQLVQSGAEVKKPGASVKVSCKASGYAFTNYLIEWVRQAPGQRLEWMGVINPGSGGTNYKEKFKGRVTITADKSSSTAYMELSSLRSEDTAVYYCARGEYFFFDYWGQGTTVTVSS VL: DIVMTQSPDSLAVSLGERATINCKASQHVSNGVAWYQHKPGQSPKLLIYSASYRYTGVPDRFSGSGSGTDFTLTISSLQAEDVAVYYCQQHYNTPHTFGGGTKVEIK				0.0281 nM and 0.0272 nM	0.0145 nM and 0.0393 nM	0.0742 nM	0.000263 s⁻¹	3.54e+06 M⁻¹ s⁻¹	1 fold	1.37 fold	0.321 nM and 0.389 nM	0.0199 nM and 0.047 nM	0.0378 nM	0.000161 s⁻¹	4.26e+06 M⁻¹ s⁻¹	0.0141 nM and 0.0247 nM
